# Test results from publication PMC3760798.
# What was measured:
# p300 = p300 (UniProt B2RWS6); test: anti-p300 co-IP from nuclear extract, time course; conditions: reference: wild type; sites S467
# [1] = biological target: CBP (CREB-binding protein) (UniProt P45481); test: anti-CBP co-IP from nuclear extract, time course; conditions: reference: wild type; sites S467
# [2] = biological target: GB1-tagged RelA-TA2 fragments (all ITC titrations); test: ITC; all ITC titrations taken together (50 mM or 150 mM NaCl); 25°C; 20 mM Tris pH 8.0, 1 mM DTT; single-binding site model
# Sequence of TAZ1 domain of mouse CBP (residues 340–439) (P45481 340-439): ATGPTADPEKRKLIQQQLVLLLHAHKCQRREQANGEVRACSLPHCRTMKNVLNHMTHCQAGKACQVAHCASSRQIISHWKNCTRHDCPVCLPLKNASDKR
binding against the reference (p300),binding against the reference [1],stoichiometry N [2],Substance
weaker,weaker,,RelA (p65) (from UniProt Q04207) S467A
,,0.9 to 1.2,TAZ1 domain of mouse CBP (residues 340–439) (from UniProt P45481 340-439) (domain or fragment)
